In patent publication EP4361176A1 one finds Binding amount and Relative binding amount data, which are given here for four molecules.

The target of experiment [1] is human FcγRIIb extracellular domain with C-terminal His-tag (human) (UniProt P31994). Kind of experiment: SPR (Biacore T200), FcγRIIb, amount bound per unit captured antibody. Background: Surface plasmon resonance follows binding to a sensor surface in real time, without labels.
Experiment [2] shares this target. The experiment in a line: SPR; binding amount / that of 04H1389-G1m/04L1615-k0MT.

human FcγRIIb extracellular domain with C-terminal His-tag (human), sequence (P31994 43-217): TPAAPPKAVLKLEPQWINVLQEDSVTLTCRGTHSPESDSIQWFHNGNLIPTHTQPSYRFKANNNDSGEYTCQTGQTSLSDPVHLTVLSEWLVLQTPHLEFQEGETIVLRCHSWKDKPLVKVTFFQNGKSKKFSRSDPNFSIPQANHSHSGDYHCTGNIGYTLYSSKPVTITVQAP

B1: 04H1389-Ks462/04L1615-k0MT//04H1389-Hs445/04L1615-k0MT (antibody, human IgG1, kappa)
heavy 1: EVQLVESGGGLVKPGGSLRLSCAASGFTFSSKTMNWVRQAPGKGLEWVSSISTQSHYIYYAESVKGRFTISRDNAKNSLYLQMNSLRAEDTAVYYCARYGKREDMLWVFDYWGQGTLVTVSSASTKGPSVFPLAPSSKSTSGGTAALGCLVKDYFPEPVTVSWNSGALTSGVHTFPAVLQSSGLYSLSSVVTVPSSSLGTQTYICNVNHKPSNTKVDKRVEPKSCDKTHTCPPCPAPEFQWGPMVFLFPPKPKDVLMISRTPEVTCVVVDVSDEEPEVKFNWYVDGVEVHNAKTKPREEQYNATYRVVSVLPVLHQDWLNGKEYKCKVSNDALPAPIEKTISKAKGQPREPQVYTLPPSREEMTKNQVSLWCLVKGFYPSDIAVEWESNGQPENNYKTTPPVLDSDGSFFLYSKLTVDKSRWQQGNVFSCSVMHEALHNHYTQKSLSLSP
heavy 2: EVQLVESGGGLVKPGGSLRLSCAASGFTFSSKTMNWVRQAPGKGLEWVSSISTQSHYIYYAESVKGRFTISRDNAKNSLYLQMNSLRAEDTAVYYCARYGKREDMLWVFDYWGQGTLVTVSSASTKGPSVFPLAPSSKSTSGGTAALGCLVKDYFPEPVTVSWNSGALTSGVHTFPAVLQSSGLYSLSSVVTVPSSSLGTQTYICNVNHKPSNTKVDKRVEPKSCDKTHTCPPCPAPELLAGPSVFLFPPKPKDVLMISRTPEVTCVVVDVSHEEPEVKFNWYVDGVEVHNAKTKPREEQYNATYRVVSVLPVLHQDWLNGKEYKCKVSNDALPKPDEETISKAKGQPREPQVYTLPPSREEMTKNQVSLSCAVKGFYPSDIAVEWESNGQPENNYKTTPPVLDSDGSFFLVSKLTVDKSRWQQGNVFSCSVMHEALHNHYTQKSLSLSP
light: DIVMTQSPLSLPVTPGEPASISCQGPSTGVGDYNYVHWYQQKPGQAPRLLIYFTSKKPSGVPDRFSGSGSGTDFTLKISRVEAEDVGVYYCQTYAAPLGPMFGQGTKLEIKRTVAAPSVFIFPPSDEQLKSGTASVVCLLNNFYPREAKVQWKVDNALQSGNSQESVTEQDSKDSTYSLSSTLTLSKADYEKHKVYACEVTHQGLSSPVTKSFNRGEC
B1: the Binding amount in experiment [1] was 0.03. This molecule showed a Relative binding amount in experiment [2] of 2.6.

B2: 04H1389-Ks473/04L1615-k0MT//04H1389-Hs482/04L1615-k0MT (antibody)
heavy 1: EVQLVESGGGLVKPGGSLRLSCAASGFTFSSKTMNWVRQAPGKGLEWVSSISTQSHYIYYAESVKGRFTISRDNAKNSLYLQMNSLRAEDTAVYYCARYGKREDMLWVFDYWGQGTLVTVSSASTKGPSVFPLAPSSKSTSGGTAALGCLVKDYFPEPVTVSWNSGALTSGVHTFPAVLQSSGLYSLSSVVTVPSSSLGTQTYICNVNHKPSNTKVDKRVEPKSCDKTHTCPPCPAPEFQWGPMVFLFPPKPKDVLMISRTPEVTCVVVDVSDEEPEVKFNWYVDGVEVHNAKTKPREEQYNATYRVVSVLPVLHQDWLNGKEYKCKVSNDALPAPIEKTISKAKGQPREPQVYTLPPSREEMTKNQVSLWCLVKGFYPSDIAVEWESNGQPENNYKTTPPVLDSDGSFFLYSKLTVDKSRWQQGNVFSCSVMHEALHAHTTRKELSLSP
heavy 2: EVQLVESGGGLVKPGGSLRLSCAASGFTFSSKTMNWVRQAPGKGLEWVSSISTQSHYIYYAESVKGRFTISRDNAKNSLYLQMNSLRAEDTAVYYCARYGKREDMLWVFDYWGQGTLVTVSSASTKGPSVFPLAPSSKSTSGGTAALGCLVKDYFPEPVTVSWNSGALTSGVHTFPAVLQSSGLYSLSSVVTVPSSSLGTQTYICNVNHKPSNTKVDKRVEPKSCDKTHTCPPCPAPELLAGPSVFLFPPKPKDVLMISRTPEVTCVVVDVSHEEPEVKFNWYVDGVEVHNAKTKPREEQYNATYRVVSVLPVLHQDWLNGKEYKCKVSNDALPKPDEETISKAKGQPREPQVYTLPPSREEMTKNQVSLSCAVKGFYPSDIAVEWESNGQPENNYKTTPPVLDSDGSFFLVSKLTVDKSRWQQGNVFSCSVMHEALHAHTTRKELSLSP
light: DIVMTQSPLSLPVTPGEPASISCQGPSTGVGDYNYVHWYQQKPGQAPRLLIYFTSKKPSGVPDRFSGSGSGTDFTLKISRVEAEDVGVYYCQTYAAPLGPMFGQGTKLEIKRTVAAPSVFIFPPSDEQLKSGTASVVCLLNNFYPREAKVQWKVDNALQSGNSQESVTEQDSKDSTYSLSSTLTLSKADYEKHKVYACEVTHQGLSSPVTKSFNRGEC
B2 displayed a Binding amount in experiment [1] of 0.026. Besides, in experiment [2], the Relative binding amount worked out at 2.3.

B3: 04H1389-Ks461/04L1615-k0MT//04H1389-Hs443/04L1615-k0MT (antibody, human IgG1, kappa)
heavy 1: EVQLVESGGGLVKPGGSLRLSCAASGFTFSSKTMNWVRQAPGKGLEWVSSISTQSHYIYYAESVKGRFTISRDNAKNSLYLQMNSLRAEDTAVYYCARYGKREDMLWVFDYWGQGTLVTVSSASTKGPSVFPLAPSSKSTSGGTAALGCLVKDYFPEPVTVSWNSGALTSGVHTFPAVLQSSGLYSLSSVVTVPSSSLGTQTYICNVNHKPSNTKVDKRVEPKSCDKTHTCPPCPAPEFQWGPMVFLFPPKPKDVLMISRTPEVTCVVVDVSDEEPEVKFNWYVDGVEVHNAKTKPREEQYNATYRVVSVLPVLHQDWLNGKEYKCKVSNDALPAPEEKTISKAKGQPREPQVYTLPPSREEMTKNQVSLWCLVKGFYPSDIAVEWESNGQPENNYKTTPPVLDSDGSFFLYSKLTVDKSRWQQGNVFSCSVMHEALHNHYTQKSLSLSP
heavy 2: EVQLVESGGGLVKPGGSLRLSCAASGFTFSSKTMNWVRQAPGKGLEWVSSISTQSHYIYYAESVKGRFTISRDNAKNSLYLQMNSLRAEDTAVYYCARYGKREDMLWVFDYWGQGTLVTVSSASTKGPSVFPLAPSSKSTSGGTAALGCLVKDYFPEPVTVSWNSGALTSGVHTFPAVLQSSGLYSLSSVVTVPSSSLGTQTYICNVNHKPSNTKVDKRVEPKSCDKTHTCPPCPAPELLAGPSVFLFPPKPKDVLMISRTPEVTCVVVDVSHEEPEVKFNWYVDGVEVHNAKTKPREEQYNATYRVVSVLPVLHQDWLNGKEYKCKVSNDALPAPEEETISKAKGQPREPQVYTLPPSREEMTKNQVSLSCAVKGFYPSDIAVEWESNGQPENNYKTTPPVLDSDGSFFLVSKLTVDKSRWQQGNVFSCSVMHEALHNHYTQKSLSLSP
light: DIVMTQSPLSLPVTPGEPASISCQGPSTGVGDYNYVHWYQQKPGQAPRLLIYFTSKKPSGVPDRFSGSGSGTDFTLKISRVEAEDVGVYYCQTYAAPLGPMFGQGTKLEIKRTVAAPSVFIFPPSDEQLKSGTASVVCLLNNFYPREAKVQWKVDNALQSGNSQESVTEQDSKDSTYSLSSTLTLSKADYEKHKVYACEVTHQGLSSPVTKSFNRGEC
B3 came in with a Binding amount in experiment [1] of 0.024. This molecule also registered a Relative binding amount in experiment [2] of 2.1.

B4: 04H1389-Km462/04L1615-k0MT//04H1389-Hm445/04L1615-k0MT (antibody, human IgG1, kappa)
heavy 1: EVQLVESGGGLVKPGGSLRLSCAASGFTFSSKTMNWVRQAPGKGLEWVSSISTQSHYIYYAESVKGRFTISRDNAKNSLYLQMNSLRAEDTAVYYCARYGKREDMLWVFDYWGQGTLVTVSSASTKGPSVFPLAPSSKSTSGGTAALGCLVKDYFPEPVTVSWNSGALTSGVHTFPAVLQSSGLYSLSSVVTVPSSSLGTQTYICNVNHKPSNTKVDKRVEPKSCDKTHTCPPCPAPEFQWGPMVFLFPPKPKDVLMISRTPEVTCVVVDVSDEEPEVKFNWYVDGVEVHNAKTKPREEQYNATYRVVSVLPVLHQDWLNGKEYKCKVSNDALPAPIEKTISKAKGQPREPQVCTLPPSREEMTKNQVSLWCLVKGFYPSDIAVEWESNGQPENNYKTTPPVLDSDGSFFLYSKLTVDKSRWQQGNVFSCSVMHEALHNHYTQKSLSLSP
heavy 2: EVQLVESGGGLVKPGGSLRLSCAASGFTFSSKTMNWVRQAPGKGLEWVSSISTQSHYIYYAESVKGRFTISRDNAKNSLYLQMNSLRAEDTAVYYCARYGKREDMLWVFDYWGQGTLVTVSSASTKGPSVFPLAPSSKSTSGGTAALGCLVKDYFPEPVTVSWNSGALTSGVHTFPAVLQSSGLYSLSSVVTVPSSSLGTQTYICNVNHKPSNTKVDKRVEPKSCDKTHTCPPCPAPELLAGPSVFLFPPKPKDVLMISRTPEVTCVVVDVSHEEPEVKFNWYVDGVEVHNAKTKPREEQYNATYRVVSVLPVLHQDWLNGKEYKCKVSNDALPKPDEETISKAKGQPREPQVYTLPPSRCEMTKNQVSLSCAVKGFYPSDIAVEWESNGQPENNYKTTPPVLDSDGSFFLVSKLTVDKSRWQQGNVFSCSVMHEALHNHYTQKSLSLSP
light: DIVMTQSPLSLPVTPGEPASISCQGPSTGVGDYNYVHWYQQKPGQAPRLLIYFTSKKPSGVPDRFSGSGSGTDFTLKISRVEAEDVGVYYCQTYAAPLGPMFGQGTKLEIKRTVAAPSVFIFPPSDEQLKSGTASVVCLLNNFYPREAKVQWKVDNALQSGNSQESVTEQDSKDSTYSLSSTLTLSKADYEKHKVYACEVTHQGLSSPVTKSFNRGEC
B4 yielded a Binding amount in experiment [1] of 0.029. In experiment [2], this molecule had a Relative binding amount of 2.6.
